The chains are these.
B1: HOOK3-SNAPf labelled with Alexa 647 (natural protein, human, UniProt Q86VS8 1-718, looked up)
chain: MFSVESLERAELCESLLTWIQTFNVDAPCQTVEDLTNGVVMAQVLQKIDPAYFDENWLNRIKTEVGDNWRLKISNLKKILKGILDYNHEILGQQINDFTLPDVNLIGEHSDAAELGRMLQLILGCAVNCEQKQEYIQAIMMMEESVQHVVMTAIQELMSKESPVSAGNDAYVDLDRQLKKTTEELNEALSAKEEIAQRCHELDMQVAALQEEKSSLLAENQVLMERLNQSDSIEDPNSPAGRRHLQLQTQLEQLQEETFRLEAAKDDYRIRCEELEKEISELRQQNDELTTLADEAQSLKDEIDVLRHSSDKVSKLEGQVESYKKKLEDLGDLRRQVKLLEEKNTMYMQNTVSLEEELRKANAARSQLETYKRQVVELQNRLSEESKKADKLDFEYKRLKEKVDSLQKEKDRLRTERDSLKETIEELRCVQAQEGQLTTQGLMPLGSQESSDSLAAEIVTPEIREKLIRLQHENKMLKLNQEGSDNEKIALLQSLLDDANLRKNELETENRLVNQRLLEVQSQVEELQKSLQDQGSKAEDSVLLKKKLEEHLEKLHEANNELQKKRAIIEDLEPRFNNSSLKIEELQEALRKKEEEMKQMEERYKKYLEKAKSVIRTLDPKQNQGAAPEIQALKNQLQERDRLFHSLEKEYEKTKSQREMEEKYIVSAWYNMGMTLHKKAAEDRLASTGSGQSFLARQRQATSSRRSYPGHVQPATAR
modifications: benzylguanine conjugated fluorophore (Alexa 647) on the SNAPf domain
notes: HOOK3, amplified from a human cDNA library, full length; pFastBacM13-8xHis-ZZ-LTLT-HOOK3-SNAPf; An untagged full-length HOOK3 from the same backbone was used in assays with Lis1; source: Sf9 (baculovirus), purified (Ni-NTA, IgG Sepharose, TEV cleavage); not shown: 8xHis, N-terminal, cleaved; ZZ, N-terminal, cleaved; SNAPf, C-terminal, kept
B4: GST-KIF1C stalk 674-922 (domain or fragment, human, UniProt O43896 674-922, looked up)
chain: SDSGDDSDKRSCEESWRLISSLREQLPPTTVQTIVKRCGLPSSGKRRAPRRVYQIPQRRRLQGKDPRWATMADLKMQAVKEICYEVALADFRHGRAEIEALAALKMRELCRTYGKPDGPGDAWRAVARDVWDTVGEEEGGGAGSGGGSEEGARGAEVEDLRAHIDKLTGILQEVKLQNSSKDRELQALRDRMLRMERVIPLAQDHEDENEEGGEVPWAPPEGSEAAEEAAPSDRMPSARPPSPPLSSWE
notes: also called KIF1CS2; source: E. coli SoluBL21, purified (Ni-NTA, Superdex 200); not shown: GST, N-terminal, kept

One series deals with T1, full-length KIF1C-GFP (human, UniProt O43896 1-1103).
T1 construct: KIF1C, human, full length; also called KFL
T1 sequence (looked up): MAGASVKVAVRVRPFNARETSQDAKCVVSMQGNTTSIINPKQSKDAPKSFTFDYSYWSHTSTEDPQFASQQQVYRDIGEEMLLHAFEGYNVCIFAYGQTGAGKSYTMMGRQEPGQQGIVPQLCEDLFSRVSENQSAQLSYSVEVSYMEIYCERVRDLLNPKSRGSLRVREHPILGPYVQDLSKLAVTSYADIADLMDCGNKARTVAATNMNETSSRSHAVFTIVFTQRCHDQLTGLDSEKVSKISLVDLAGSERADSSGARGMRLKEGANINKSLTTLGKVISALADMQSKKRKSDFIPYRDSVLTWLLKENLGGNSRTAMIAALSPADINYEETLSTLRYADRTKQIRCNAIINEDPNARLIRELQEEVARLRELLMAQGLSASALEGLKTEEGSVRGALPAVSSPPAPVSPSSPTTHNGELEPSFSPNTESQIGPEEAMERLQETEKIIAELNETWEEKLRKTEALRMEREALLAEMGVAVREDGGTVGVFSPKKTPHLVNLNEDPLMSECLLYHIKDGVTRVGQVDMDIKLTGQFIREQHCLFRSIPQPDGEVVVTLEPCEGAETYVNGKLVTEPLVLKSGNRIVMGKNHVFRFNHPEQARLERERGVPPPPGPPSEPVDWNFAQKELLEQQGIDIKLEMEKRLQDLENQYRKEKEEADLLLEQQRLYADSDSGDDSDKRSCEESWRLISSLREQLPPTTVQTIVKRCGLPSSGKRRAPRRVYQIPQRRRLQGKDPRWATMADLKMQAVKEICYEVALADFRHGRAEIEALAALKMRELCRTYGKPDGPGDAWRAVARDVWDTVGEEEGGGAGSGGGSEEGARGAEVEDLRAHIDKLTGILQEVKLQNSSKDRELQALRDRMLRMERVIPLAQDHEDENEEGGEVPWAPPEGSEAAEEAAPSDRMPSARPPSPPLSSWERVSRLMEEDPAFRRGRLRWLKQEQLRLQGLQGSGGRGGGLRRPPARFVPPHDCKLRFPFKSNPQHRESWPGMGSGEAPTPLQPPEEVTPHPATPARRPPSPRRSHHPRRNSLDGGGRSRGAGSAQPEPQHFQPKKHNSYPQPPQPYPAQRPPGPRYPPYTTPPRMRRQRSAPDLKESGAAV
Nature of the series: single-molecule TIRF co-movement on microtubules; TMR-dynein, dynactin, HOOK3-Alexa 647 and KIF1C-GFP mixed (200 nM dynein, 200 nM dynactin, 1600 nM adaptor, 180 nM KIF1C-GFP, ~75 mM KCl), diluted and imaged on taxol microtubules at 25 °C; controls with single components omitted. The note with it: both partners purified.

Series [1] deals with the molecule itself. Description: cryo-EM structure; FHF with full-length FTS and FHIP1B and HOOK3 571-718, 0.9 mg/ml with 0.1% CHAPSO or 0.005% Igepal; 3.2 Å reconstruction.
The series “GST-KIF1C stalk 674-922” deals with B4. Description: cross-linking; cross-linking mass spectrometry with 10 mM EDC or 5 mM DSSO, room temperature, 60 minutes; full-length FHF or FH^571-718F bound to KIF1C stalk 674-922. The note with it: both partners purified.
The target in series [2] is T2, full-length FTS-HOOK3-FHIP1B (FHF) complex (human, UniProt Q9H8T0 1-292; Q86VS8 1-718; Q8N612 1-972). Description: cell-based or functional assay.
Series [3] addresses B1. Nature of the series: cell-based or functional assay.
Series [4] addresses T2, full-length FTS-HOOK3-FHIP1B (FHF) …. Description: mass photometry; full-length FHF with KIF1C stalk, diluted to 100 nM in GF150; Refeyn TwoMP. The conditions noted are these: both partners purified.
The target in series [5] is T3, HOOK3, full length (as in full-length FHF) (human, UniProt Q86VS8 1-718).
T3 construct: HOOK3, human, full length; gene codon optimised for Sf9; The HOOK3 chain of full-length FHF, written alone for the rows of two; not shown: Strep II, N-terminal, cleaved
T3 sequence (looked up): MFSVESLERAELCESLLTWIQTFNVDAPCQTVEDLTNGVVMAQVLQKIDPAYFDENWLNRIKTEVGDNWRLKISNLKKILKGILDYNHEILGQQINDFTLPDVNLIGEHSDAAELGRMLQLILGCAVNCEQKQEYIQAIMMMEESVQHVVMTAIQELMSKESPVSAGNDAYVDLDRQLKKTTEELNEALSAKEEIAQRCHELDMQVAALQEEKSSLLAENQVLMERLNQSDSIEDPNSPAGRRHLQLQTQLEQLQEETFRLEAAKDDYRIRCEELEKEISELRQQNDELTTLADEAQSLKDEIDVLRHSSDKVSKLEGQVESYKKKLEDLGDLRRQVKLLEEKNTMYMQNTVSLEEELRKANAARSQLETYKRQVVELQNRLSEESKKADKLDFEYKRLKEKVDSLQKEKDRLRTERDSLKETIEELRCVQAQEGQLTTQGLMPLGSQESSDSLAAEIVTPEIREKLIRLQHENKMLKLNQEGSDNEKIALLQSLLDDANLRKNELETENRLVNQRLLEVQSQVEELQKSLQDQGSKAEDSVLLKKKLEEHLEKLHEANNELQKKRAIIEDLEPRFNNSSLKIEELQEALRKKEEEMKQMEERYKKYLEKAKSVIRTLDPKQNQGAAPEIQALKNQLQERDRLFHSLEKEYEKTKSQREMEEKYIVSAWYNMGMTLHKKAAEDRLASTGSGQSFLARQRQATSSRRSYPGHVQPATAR
Description: cross-linking; cross-linking mass spectrometry with 10 mM EDC or 5 mM DSSO, room temperature, 60 minutes; full-length FHF or FH^571-718F bound to KIF1C stalk 674-922. The conditions noted are these: both partners purified.

For series [6], the target named is T4, HOOK3 residues 451-718 (as in FH^451-718F) (human, UniProt Q86VS8 451-718).
T4 construct: The HOOK3 chain of m12, written alone for the row of two; also called HOOK3 C-terminal fragment; not shown: Strep II, N-terminal, cleaved
T4 sequence (looked up): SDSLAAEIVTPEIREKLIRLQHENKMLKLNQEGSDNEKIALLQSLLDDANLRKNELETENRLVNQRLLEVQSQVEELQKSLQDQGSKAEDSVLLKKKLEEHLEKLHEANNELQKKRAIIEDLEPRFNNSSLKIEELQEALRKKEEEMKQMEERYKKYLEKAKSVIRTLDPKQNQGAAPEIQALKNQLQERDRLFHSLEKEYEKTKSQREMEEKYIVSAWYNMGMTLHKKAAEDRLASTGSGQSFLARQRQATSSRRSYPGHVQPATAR
Description: cryo-EM structure; FH^451-718F bound to GST-KIF1C stalk 674-922; low resolution at the KIF1C density. The conditions noted are these: both partners purified.

The text below walks through data of article doi:10.1101/2023.10.26.564242, “KIF1C activates and extends dynein movement through the FHF cargo adaptor” (bioRxiv, 2023).

T2 sequence (Q9H8T0 whole entry, chain 1 of 2): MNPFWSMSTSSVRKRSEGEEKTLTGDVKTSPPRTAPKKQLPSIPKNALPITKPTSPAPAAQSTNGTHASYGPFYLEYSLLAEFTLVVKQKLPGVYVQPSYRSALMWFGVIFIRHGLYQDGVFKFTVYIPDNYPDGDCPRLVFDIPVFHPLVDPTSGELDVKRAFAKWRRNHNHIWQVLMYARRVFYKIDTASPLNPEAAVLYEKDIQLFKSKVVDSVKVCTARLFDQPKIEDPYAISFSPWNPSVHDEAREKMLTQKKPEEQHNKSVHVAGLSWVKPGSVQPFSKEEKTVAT
T2 sequence (Q8N612 whole entry, chain 3 of 2): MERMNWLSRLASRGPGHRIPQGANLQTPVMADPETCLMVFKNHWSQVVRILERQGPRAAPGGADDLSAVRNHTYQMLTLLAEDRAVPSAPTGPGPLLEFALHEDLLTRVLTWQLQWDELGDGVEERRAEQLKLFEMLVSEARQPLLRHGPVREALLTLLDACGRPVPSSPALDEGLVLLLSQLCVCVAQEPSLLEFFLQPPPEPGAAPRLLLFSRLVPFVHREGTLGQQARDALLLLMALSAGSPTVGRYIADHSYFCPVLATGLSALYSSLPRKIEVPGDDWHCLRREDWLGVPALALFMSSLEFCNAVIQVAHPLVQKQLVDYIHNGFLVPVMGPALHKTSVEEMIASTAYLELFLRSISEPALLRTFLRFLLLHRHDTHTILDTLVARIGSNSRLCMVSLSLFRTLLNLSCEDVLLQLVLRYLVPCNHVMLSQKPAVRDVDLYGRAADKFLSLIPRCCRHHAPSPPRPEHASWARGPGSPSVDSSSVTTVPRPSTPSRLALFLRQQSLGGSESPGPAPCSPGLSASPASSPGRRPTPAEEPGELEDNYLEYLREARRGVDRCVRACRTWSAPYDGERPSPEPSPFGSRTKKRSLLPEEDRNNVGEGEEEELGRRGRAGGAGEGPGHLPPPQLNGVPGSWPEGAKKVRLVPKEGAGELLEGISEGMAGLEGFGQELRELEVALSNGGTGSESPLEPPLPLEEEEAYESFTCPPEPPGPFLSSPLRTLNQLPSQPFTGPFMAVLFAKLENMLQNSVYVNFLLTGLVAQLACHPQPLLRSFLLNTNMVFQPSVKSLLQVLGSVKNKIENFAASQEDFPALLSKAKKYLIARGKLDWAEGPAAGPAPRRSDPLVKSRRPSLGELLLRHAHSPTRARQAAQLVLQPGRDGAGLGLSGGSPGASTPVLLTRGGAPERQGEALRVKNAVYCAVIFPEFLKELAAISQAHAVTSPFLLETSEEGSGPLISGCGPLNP

As for B1, in the series with full-length KIF1C-GFP, the binding result is reported as “binds”.

B2: HOOK3 C-terminal fragment (residues 571-718) (domain or fragment, human, UniProt Q86VS8 571-718, looked up)
chain: DLEPRFNNSSLKIEELQEALRKKEEEMKQMEERYKKYLEKAKSVIRTLDPKQNQGAAPEIQALKNQLQERDRLFHSLEKEYEKTKSQREMEEKYIVSAWYNMGMTLHKKAAEDRLASTGSGQSFLARQRQATSSRRSYPGHVQPATAR
notes: The HOOK3 chain of the FHF cryo-EM construct, written alone for the rows of two; not shown: Strep II, N-terminal, cleaved
Take B2: the binding result (in series [1]; in the series with GST-KIF1C stalk 674-922) was “binds” in each case.

B3: GST-KIF1C stalk (residues 642-922) (domain or fragment, human, UniProt O43896 642-922, looked up)
chain: EMEKRLQDLENQYRKEKEEADLLLEQQRLYADSDSGDDSDKRSCEESWRLISSLREQLPPTTVQTIVKRCGLPSSGKRRAPRRVYQIPQRRRLQGKDPRWATMADLKMQAVKEICYEVALADFRHGRAEIEALAALKMRELCRTYGKPDGPGDAWRAVARDVWDTVGEEEGGGAGSGGGSEEGARGAEVEDLRAHIDKLTGILQEVKLQNSSKDRELQALRDRMLRMERVIPLAQDHEDENEEGGEVPWAPPEGSEAAEEAAPSDRMPSARPPSPPLSSWE
notes: also called KS; Ks; source: E. coli SoluBL21, purified (Ni-NTA, Superdex 200); not shown: GST, N-terminal, kept
As to B3, the “processive events of dynein-dynactin-FHF (TIRF), with KIF1C stalk against a DDFHF control” value in series [2] was around 3.7 fold. Further, the “dynein microtubule recruitment (TMR-dynein landing rate, TIRF) with dynactin, HOOK3 and Lis1, with against without the KIF1C stalk construct (GST-KIF1C642-922-GFP in this assay)” value in series [3] is 2.6 fold. In addition, in series [4], the “stoichiometry N” value is 1 dimeric KIF1C stalk per FHF.

Consider B4, for which the binding result in series [5] and in series [6] was “binds” throughout.
